Patent US20210292414A1 (H LUNDBECK A S, published 2021)
Residue numbers refer to the chain shown, from its start.

T1: Sortilin SORTECDBAP_tetra (tetraodon)
T1 construct: Fully tetraodon Sortilin ECD with BAP tag; also called tetraodon; tetraodon Sortilin
T1 chain: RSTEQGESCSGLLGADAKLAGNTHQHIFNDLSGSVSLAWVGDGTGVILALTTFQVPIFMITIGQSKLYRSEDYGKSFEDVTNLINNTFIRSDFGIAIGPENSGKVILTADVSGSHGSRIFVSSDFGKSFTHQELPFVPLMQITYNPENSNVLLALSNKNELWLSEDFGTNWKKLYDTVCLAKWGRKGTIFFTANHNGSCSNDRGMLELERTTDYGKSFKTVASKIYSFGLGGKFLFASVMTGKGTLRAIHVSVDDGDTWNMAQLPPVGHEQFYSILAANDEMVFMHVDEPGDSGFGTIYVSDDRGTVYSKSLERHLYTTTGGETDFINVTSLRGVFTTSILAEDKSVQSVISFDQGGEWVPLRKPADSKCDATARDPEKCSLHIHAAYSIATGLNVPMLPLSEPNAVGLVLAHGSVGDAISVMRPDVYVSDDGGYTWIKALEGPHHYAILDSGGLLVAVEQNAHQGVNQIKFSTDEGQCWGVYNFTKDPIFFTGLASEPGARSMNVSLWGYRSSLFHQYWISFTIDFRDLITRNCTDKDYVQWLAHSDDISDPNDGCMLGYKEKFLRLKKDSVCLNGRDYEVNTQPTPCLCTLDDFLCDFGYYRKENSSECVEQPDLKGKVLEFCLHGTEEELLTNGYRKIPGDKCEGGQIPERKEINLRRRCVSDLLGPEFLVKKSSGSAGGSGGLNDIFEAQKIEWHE

T2: Sortilin SORTECDBAP_hB06-10 (human/tetraodon chimera)
T2 construct: Shuffle construct: chimeric human/tetraodon Sortilin ECD with BAP tag
T2 chain: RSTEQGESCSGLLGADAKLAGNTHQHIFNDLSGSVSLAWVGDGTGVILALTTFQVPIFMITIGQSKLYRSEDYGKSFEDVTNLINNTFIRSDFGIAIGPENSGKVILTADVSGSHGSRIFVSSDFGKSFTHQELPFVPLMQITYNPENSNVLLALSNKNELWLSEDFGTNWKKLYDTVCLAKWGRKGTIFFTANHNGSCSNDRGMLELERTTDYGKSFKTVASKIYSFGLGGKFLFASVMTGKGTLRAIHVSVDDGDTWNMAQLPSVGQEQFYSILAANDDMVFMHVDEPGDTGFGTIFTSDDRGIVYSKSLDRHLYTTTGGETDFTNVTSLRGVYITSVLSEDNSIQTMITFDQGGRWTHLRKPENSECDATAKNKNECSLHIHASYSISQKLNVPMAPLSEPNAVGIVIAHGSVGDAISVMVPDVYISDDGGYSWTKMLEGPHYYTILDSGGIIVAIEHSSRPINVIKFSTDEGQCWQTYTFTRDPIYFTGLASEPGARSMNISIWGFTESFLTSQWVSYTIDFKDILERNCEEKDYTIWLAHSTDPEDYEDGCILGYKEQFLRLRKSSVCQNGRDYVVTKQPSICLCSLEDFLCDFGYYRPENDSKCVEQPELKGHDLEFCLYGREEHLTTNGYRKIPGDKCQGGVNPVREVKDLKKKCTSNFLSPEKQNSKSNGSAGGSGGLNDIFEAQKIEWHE

T3: Sortilin hSORTECDBAP (human, UniProt Q99523 78-755)
T3 sequence: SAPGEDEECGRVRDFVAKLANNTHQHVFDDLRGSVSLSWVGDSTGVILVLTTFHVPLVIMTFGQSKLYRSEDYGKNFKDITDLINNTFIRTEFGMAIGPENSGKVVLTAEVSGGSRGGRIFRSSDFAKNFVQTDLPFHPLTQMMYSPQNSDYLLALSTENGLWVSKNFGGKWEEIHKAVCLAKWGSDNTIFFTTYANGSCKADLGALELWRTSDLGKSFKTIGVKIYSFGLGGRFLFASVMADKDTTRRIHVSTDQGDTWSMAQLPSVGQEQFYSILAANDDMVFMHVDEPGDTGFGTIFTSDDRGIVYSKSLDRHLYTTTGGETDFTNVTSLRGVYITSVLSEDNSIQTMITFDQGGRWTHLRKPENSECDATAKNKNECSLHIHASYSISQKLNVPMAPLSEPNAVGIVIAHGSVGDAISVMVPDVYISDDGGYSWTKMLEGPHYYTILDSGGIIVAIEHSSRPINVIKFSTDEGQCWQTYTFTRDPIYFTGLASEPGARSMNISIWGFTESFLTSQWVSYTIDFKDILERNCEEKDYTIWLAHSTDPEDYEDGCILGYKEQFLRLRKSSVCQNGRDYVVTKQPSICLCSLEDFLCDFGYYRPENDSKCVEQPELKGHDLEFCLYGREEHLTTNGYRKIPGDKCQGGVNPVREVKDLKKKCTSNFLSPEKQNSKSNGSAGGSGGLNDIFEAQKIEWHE

T4: hRim
T4 chimeric human/tetraodon Sortilin extracellular region, BAP tag: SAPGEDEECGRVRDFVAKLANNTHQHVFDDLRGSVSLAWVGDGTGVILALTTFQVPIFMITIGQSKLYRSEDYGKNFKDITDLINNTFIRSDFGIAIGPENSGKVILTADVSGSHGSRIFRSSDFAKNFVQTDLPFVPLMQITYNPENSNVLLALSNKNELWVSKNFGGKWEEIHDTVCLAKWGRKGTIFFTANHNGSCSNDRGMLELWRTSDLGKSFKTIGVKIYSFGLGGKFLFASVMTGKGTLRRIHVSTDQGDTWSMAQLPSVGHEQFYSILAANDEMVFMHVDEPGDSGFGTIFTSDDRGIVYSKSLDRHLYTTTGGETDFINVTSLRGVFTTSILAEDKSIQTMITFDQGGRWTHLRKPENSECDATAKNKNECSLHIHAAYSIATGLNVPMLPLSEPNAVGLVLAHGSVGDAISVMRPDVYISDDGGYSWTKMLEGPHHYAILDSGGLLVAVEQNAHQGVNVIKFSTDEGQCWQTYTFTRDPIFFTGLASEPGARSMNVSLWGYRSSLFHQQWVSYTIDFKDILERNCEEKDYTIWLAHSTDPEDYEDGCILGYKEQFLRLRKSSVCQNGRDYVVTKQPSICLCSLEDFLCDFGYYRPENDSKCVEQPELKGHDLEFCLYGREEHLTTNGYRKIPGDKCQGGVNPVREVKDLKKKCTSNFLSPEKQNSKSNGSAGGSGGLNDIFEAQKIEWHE

B1: Antibody 6003-799 (antibody, human IgG1, V domains shown)
VH: QVQLVESGGGVVQPGRSLRLSCAASGFTFSSYGMHWVRQAPGKGLEWVTVISYDGSNKYYADSVKGRFTISRDNSKNTLYLQMNSLRAEDTAVYYCAKLTGDAFDIWGQGTMVTVSS
VL: EIVLTQSPATLSLSPGERATLSCRASQSVSSYLVWYQQKPGQAPRLLIYHASNRATGIPARFSGSGSGTDFTLTISSLEPEDFAVYYCQQRSNWPRITFGQGTRLEIK
B2: Antibody 6003-822 (antibody, human IgG1, V domains shown)
VH: EVQLLESGGGLVQPGESLTLSCAASGFTLSSYAMSWVRQAPGKGLEWVSSISGRLGTTYYAASVKGRFTISRDNSKNTLYLQMNSLRAEDTAIYSCAKAPSDAFDIWGQGTMVTVSS
VL: B1 VL with V34A, H50D, R96I, I97F, Q101P, R104K, L105V, E106D
B3: Antibody 6003-886 (antibody, human IgG1, V domains shown)
VH: QVQLVQSGAEVKKPGASVKVSCKASGYTFTKYGISWVRQAPGQGLEWMGWISAYNGNTNYAQKLQDRVTMTTDTFTSTAYMELRSLRSDDTAVYFCARDGPLTGDFTFYGMDVWGQGTTVTVSS
VL: B1 VL with V34A, H50D, R96P, I97F, Q101P, R104K, L105V, E106D
B4: Antibody 6003-900 (antibody, human IgG1, V domains shown)
VH: EVQLVESGGGLVKPGGSLRLSCAASGFTFSSYSMNWVRQAPGKGLEWVSSISSSSSYIYYADSVKGRFTISRDNAKNSLYLQMNSLRAEDTAVYYCARRGSGSYDAFDIWGQGTMVTVSS
VL: EIVLTQSPDFQSVTPKEKVTITCRASQSIGYSLHWYQQKPDQSPKLLIKYASQSFSGVPSRFSGSGSGTDFTLTINSLEAEDAAAYYCHQSSSLPLTFGGGTKVEIK
notes: also called antibody 900; Sortilin human antibody 900
B5: IgG1-6003-910 (antibody, V domains shown)
VH: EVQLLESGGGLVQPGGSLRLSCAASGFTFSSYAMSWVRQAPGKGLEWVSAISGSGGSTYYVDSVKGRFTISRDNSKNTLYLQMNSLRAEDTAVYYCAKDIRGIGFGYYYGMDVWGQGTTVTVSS
VL: EIVLTQSPATLSLSPGERATLSCRASQSVSSYLVWYQQKPGQAPRLLIYDASNRATGIPARFSGSGSGTDFTLTISSLEPEDFAVYYCQQRSNWPPTFGQGTRLEIK
notes: also called Antibody 6003-910
B6: IgG1-6003-972 (antibody, V domains shown)
VH: QVQLVESGGGVVQPGRSLRLSCAASGFTFSDYAMHWVRRAPGKGLEWVVVISYDGSNKYYADSVKGRFTISRDNSKNTLYLQMNSLRAEDTAVYYCARDPSGGWYFDLWGRGTLVTVSS
VL: B5 VL with V34A, V85L, N93H, P96R, R103K, L104V
notes: also called Antibody 6003-972

Target: T1, Sortilin SORTECDBAP_tetra
Experiment: BLI (Octet384RED)

binding result	Binder
no binding	B1
no binding	B2
no binding	B3
no binding	B4
no binding	B5
no binding	B6

Target: T2, Sortilin SORTECDBAP_hB06-10
Experiment: BLI (Octet384RED)

EC50 [ng/mL]	Binder
2.63	B1
1.49	B2
2.44	B3
0.91	B4
1.16	B5
1.12	B6

target: T3, Sortilin hSORTECDBAP; experiment: BLI (Octet384RED)

EC50 [ng/mL]	Binder
3.49	B1
1.97	B2
3.4	B3
1.06	B4
1.34	B5
1.35	B6

Target: T4, hRim
Experiment: BLI (Octet384RED)

EC50 [ng/mL]	Binder
5.02	B1
2.31	B2
4.42	B3
1.26	B4
2.59	B5
3.08	B6
